Where no end group is shown, it is not given here.
Columns and labels:
eNOS = target: T1, eNOS (Bos taurus, UniProt P29473); assay: VEGF-induced NO release by cultured BAEC (NO chemiluminescence); format: cell-based, bovine; conditions: for inhibition of VEGF-induced NO release: 6 h pretreatment; for effect on basal (unstimulated) NO release: six-hour pretreatment, no VEGF
T1 construct: effect of Endo5 fused to Cav (endo5-Cav) on NO release by cultured BAEC; endogenous in cells; host or cells: BAEC (cultured endothelial cells)
T1 sequence (P29473 2-1205 limits assumed): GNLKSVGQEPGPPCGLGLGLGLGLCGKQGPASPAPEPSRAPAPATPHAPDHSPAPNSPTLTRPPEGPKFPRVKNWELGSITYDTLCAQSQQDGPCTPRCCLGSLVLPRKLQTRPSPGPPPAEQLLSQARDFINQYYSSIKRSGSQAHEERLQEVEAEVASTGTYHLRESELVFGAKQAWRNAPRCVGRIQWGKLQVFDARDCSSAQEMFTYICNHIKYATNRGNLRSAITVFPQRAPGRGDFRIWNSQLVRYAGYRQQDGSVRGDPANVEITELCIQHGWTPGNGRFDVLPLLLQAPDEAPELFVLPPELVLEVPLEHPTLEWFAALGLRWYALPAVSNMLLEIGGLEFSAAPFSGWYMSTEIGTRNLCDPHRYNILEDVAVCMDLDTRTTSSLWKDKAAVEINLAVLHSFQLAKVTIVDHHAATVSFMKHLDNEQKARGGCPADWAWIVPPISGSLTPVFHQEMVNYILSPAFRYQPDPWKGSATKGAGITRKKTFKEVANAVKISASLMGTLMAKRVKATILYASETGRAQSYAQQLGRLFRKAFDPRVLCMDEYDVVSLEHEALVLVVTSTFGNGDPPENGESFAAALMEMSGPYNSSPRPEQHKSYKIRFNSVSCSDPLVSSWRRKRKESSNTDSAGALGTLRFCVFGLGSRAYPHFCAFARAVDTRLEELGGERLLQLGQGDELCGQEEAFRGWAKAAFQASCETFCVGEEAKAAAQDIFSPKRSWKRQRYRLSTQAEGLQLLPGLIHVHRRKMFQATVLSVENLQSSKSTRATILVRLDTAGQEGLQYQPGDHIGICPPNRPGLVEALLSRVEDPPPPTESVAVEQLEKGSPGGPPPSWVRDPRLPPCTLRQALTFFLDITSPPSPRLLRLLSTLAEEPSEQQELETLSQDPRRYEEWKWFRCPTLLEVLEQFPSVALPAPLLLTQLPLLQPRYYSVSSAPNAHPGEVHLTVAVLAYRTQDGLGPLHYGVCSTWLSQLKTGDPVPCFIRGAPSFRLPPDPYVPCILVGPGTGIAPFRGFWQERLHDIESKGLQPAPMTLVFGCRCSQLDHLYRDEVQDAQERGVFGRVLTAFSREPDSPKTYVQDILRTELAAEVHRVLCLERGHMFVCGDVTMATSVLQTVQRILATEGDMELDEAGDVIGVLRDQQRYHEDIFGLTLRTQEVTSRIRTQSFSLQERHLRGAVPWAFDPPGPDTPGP
Description: Briefly, confluent BAEC were incubated in serum-free DMEM for 6 hours with peptides. Media was removed and fresh serum-free DMEM was added, with or without VEGF (10^−9 M) for 30 min. Media was collected, cells were trypsinized and counted, and nitrites levels in the supernatant were determined by using a Sievers NO chemiluminescence analyzer.
AP-Cav blocks agonist-induced eNOS activity in cultured endothelial cells (Bucci et al., 2000, Nat. Med. 6:1362-7), and this biological activity is dependent on AP-Cav's internalization, dosage and pretreatment time. In the present study, the uptake potential of Endo5 was compared with that of AP by testing the effect of Endo5 fused to Cav (endo5-Cav) on NO release by cultured BAEC.

HUVEC = assay: CPP imaging in live HUVEC (epifluorescence, pulse/chase); format: cell-based, human; conditions: for staining pattern after 1 h pulse: 37° C.; for staining pattern after two-hour chase: 2 h chase in absence of CPP
Description: Freshly isolated HUVEC were grown in M199 media supplemented with glutamine, 10% FBS and endothelial cell growth supplement on Petri dishes with glass bottom. Since CPPs bind non-specifically to glass, the background fluorescence was reduced by pretreating glass-bottom Petri dishes with a blocking solution containing unlabelled AP and Endo5 for 30 min (5×10^−5 M) in colorless M199 media with 1% FBS. After cell seeding, media was removed and carboxyfluorescin-labeled Endo5 and Rhodamine-labeled AP were added to cells (10^−5 M) and cells were incubated at 37° C. and 5% CO2 for 1 hour (pulse). Media was removed, cells were rinsed once with warm culture media and peptide uptake was rapidly visualized on a Zess Axiovert inverted fluorescence microscope by performing a Z-stack of captured images followed by volume deconvolution (Openlab software). The new media was left on cells for an additional 2 hours (total 3 hours) to chase CPP localization, and cells were visualized again (chase).
In the present study, epifluorescence microscopy experiments were performed in live HUVEC to compare the uptake mechanism of Endo5 to AP. After blocking glass bottom Petri dishes with unlabelled AP and Endo5 to minimize non-specific binding of labeled peptides, freshly isolated HUVEC were grown to 50% confluent and labeled with a “pulse” of carboxyfluorescein-Endo5 and rhodamine-AP (10^−6M) for 1 h, rinsed, followed by a two-hour “chase” for a total of 3 hours. Deconvoluted images were captured after the “pulse” and “chase” periods. […] (FIG. 5A). Nuclear staining was nearly completely absent (dark central area).

[1] = Peptide solubility in NO release dose-response experiment; format: physicochemical; conditions: above 2.5×10^-5 M
[2] = peptide 10^-5 M, VEGF 10^-9 M 30 min

Substance	inhibition of VEGF-induced NO release (eNOS; [2])	effect on basal (unstimulated) NO release (eNOS; peptide 10^-5 M)	staining pattern after 1 h pulse (HUVEC)	staining pattern after two-hour chase (HUVEC)	solubility limit [1]	inhibition of VEGF-induced NO release (eNOS; peptide 2×10^-6 M)
RQIKIWFQNRRMKWKK [AP, reference compound]	no significant effect	no significant effect	diffuse punctate cytoplasmic staining	more concentrated rather than diffuse pattern	–	–
RRPPR [Endo5, short five-amino acid cell-permeable peptide]	no significant effect	no significant effect	diffuse punctate cytoplasmic staining	more concentrated rather than diffuse pattern	–	–
RQIKIWFQNRRMKWKKDGIWKASFTTFTVTKYWFYR [AP-Cav]	–	–	–	–	peptide insolubility at greater dose	–
Endo5-CavAB: Endo5 fused to the Cav AB domain (caveolin-1 amino acids 82-95, SEQ ID NO: 6); a 19-mer peptide (RRPPRDGIWKASFTTFTVT)	completely blocked	–	–	–	–	49%

Reference: US10550151B2, “Cell-penetrating compositions and methods using same” (Yale University, priority 2013, dated 2020)
